From publication PMC4615246 (Nucleus, 2015) come the findings set out here.

Common to all, as to test: LacI/LacO array recruitment in cells
The target in one assay is T1, LacI-CFP-Nup133 (human, UniProt Q8WUM0 1-1156).
T1 sequence: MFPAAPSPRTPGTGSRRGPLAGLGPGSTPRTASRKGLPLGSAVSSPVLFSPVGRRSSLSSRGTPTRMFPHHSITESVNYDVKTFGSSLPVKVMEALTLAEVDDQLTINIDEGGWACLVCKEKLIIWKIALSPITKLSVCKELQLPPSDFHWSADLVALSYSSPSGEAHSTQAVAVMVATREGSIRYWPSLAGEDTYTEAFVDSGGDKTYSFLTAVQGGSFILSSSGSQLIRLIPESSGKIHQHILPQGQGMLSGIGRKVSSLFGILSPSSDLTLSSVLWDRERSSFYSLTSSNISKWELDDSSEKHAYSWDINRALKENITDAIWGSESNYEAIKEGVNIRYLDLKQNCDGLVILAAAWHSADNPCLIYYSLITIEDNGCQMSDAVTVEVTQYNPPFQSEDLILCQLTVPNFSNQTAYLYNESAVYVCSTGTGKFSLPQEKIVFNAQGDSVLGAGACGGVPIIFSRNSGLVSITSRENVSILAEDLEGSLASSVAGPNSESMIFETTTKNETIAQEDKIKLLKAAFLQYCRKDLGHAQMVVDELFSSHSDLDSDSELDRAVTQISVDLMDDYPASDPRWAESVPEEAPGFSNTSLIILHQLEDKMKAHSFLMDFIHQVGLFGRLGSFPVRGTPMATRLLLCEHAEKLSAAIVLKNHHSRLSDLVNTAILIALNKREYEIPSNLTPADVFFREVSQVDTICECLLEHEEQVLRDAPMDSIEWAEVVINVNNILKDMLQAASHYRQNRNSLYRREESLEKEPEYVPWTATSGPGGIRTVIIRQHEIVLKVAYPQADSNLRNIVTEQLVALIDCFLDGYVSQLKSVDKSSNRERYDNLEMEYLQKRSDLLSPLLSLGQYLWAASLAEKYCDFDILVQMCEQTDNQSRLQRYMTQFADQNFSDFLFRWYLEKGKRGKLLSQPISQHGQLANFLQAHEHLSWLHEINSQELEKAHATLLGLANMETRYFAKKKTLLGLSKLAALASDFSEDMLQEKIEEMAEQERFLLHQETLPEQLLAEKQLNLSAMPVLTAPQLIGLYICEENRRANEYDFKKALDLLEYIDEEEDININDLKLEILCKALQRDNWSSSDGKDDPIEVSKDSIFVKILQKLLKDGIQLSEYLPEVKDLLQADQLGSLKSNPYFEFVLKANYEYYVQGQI

Another assay deals with T2, LacI-CFP-Nup50 (human, UniProt Q9UKX7 1-468).
T2 sequence: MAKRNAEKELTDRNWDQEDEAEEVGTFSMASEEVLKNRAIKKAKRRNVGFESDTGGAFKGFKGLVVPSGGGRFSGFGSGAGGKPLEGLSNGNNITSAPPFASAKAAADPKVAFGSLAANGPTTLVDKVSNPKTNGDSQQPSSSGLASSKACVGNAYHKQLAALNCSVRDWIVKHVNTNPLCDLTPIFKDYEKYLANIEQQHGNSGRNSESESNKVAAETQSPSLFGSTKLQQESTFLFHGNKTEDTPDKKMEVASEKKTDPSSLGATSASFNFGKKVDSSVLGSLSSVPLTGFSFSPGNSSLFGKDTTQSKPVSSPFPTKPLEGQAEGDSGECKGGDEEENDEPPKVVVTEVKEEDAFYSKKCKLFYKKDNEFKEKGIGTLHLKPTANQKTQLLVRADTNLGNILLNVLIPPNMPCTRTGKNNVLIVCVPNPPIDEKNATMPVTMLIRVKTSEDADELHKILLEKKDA

The next assay has as its target T3, LacI-CFP-Nup155 (human, UniProt O75694 1-1391).
T3 sequence: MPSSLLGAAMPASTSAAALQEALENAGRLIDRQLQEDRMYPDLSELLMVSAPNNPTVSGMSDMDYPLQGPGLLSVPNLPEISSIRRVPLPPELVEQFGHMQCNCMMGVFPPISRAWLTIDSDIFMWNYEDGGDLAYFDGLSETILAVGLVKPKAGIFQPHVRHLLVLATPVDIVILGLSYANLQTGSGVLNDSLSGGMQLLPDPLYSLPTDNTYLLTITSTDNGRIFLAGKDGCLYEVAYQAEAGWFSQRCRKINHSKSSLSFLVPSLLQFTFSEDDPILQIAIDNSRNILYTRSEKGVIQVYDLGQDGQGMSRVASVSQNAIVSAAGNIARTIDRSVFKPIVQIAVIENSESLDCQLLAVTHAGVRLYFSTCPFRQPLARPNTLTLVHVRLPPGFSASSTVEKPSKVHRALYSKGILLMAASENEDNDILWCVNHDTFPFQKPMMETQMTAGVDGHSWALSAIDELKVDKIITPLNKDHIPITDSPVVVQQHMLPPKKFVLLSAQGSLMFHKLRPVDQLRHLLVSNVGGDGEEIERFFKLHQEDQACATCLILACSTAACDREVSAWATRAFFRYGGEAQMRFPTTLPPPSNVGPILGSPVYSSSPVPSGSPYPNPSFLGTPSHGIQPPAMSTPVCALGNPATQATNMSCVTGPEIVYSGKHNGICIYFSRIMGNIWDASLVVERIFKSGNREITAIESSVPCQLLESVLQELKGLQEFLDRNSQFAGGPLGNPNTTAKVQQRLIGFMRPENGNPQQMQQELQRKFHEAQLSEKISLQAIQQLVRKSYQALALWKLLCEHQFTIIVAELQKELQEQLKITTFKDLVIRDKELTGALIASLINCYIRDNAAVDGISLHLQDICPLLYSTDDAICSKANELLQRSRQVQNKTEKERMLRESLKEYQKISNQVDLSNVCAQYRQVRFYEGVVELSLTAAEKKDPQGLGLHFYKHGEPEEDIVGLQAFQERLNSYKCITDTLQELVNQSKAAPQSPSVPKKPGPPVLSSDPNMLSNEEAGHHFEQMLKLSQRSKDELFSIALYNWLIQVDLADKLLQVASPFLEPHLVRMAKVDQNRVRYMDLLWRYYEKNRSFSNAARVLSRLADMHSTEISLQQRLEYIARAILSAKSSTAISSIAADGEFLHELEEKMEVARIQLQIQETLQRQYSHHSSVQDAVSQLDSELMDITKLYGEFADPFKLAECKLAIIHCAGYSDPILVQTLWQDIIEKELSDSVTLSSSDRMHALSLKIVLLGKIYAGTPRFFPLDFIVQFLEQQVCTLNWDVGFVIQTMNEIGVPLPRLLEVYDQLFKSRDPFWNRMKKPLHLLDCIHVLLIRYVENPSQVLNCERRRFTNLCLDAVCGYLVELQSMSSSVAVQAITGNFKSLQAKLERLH

B1: Nup53 (endogenous) (natural protein)
chain: MAAFAVEPQGPALGSEPMMLGSPTSPKPGVNAQFLPGFLMGDLPAPVTPQPRSISGPSVGVMEMRSPLLAGGSPPQPVVPAHKDKSGAPPVRSIYDDISSPGLGSTPLTSRRQPNISVMQSPLVGVTSTPGTGQSMFSPASIGQPRKTTLSPAQLDPFYTQGDSLTSEDHLDDSWVTVFGFPQASASYILLQFAQYGNILKHVMSNTGNWMHIRYQSKLQARKALSKDGRIFGESIMIGVKPCIDKSVMESSDRCALSSPSLAFTPPIKTLGTPTQPGSTPRISTMRPLATAYKASTSDYQVISDRQTPKKDESLVSKAMEYMFGW
On to B1, for which the “percent of transfected cells showing colocalization” value worked out at 20% with LacI-CFP-Nup133, 6% with LacI-CFP-Nup50 and 46% with LacI-CFP-Nup155.

B2: Nup93 (endogenous) (natural protein)
chain: MDTEGFGELLQQAEQLAAETEGISELPHVERNLQEIQQAGERLRSRTLTRTSQETADVKASVLLGSRGLDISHISQRLESLSAATTFEPLEPVKDTDIQGFLKNEKDNALLSAIEESRKRTFGMAEEYHRESMLVEWEQVKQRILHTLLASGEDALDFTQESEPSYISDVGPPGRSSLDNIEMAYARQIYIYNEKIVNGHLQPNLVDLCASVAELDDKSISDMWTMVKQMTDVLLTPATDALKNRSSVEVRMEFVRQALAYLEQSYKNYTLVTVFGNLHQAQLGGVPGTYQLVRSFLNIKLPAPLPGLQDGEVEGHPVWALIYYCMRCGDLLAASQVVNRAQHQLGEFKTWFQEYMNSKDRRLSPATENKLRLHYRRALRNNTDPYKRAVYCIIGRCDVTDNQSEVADKTEDYLWLKLNQVCFDDDGTSSPQDRLTLSQFQKQLLEDYGESHFTVNQQPFLYFQVLFLTAQFEAAVAFLFRMERLRCHAVHVALVLFELKLLLKSSGQSAQLLSHEPGDPPCLRRLNFVRLLMLYTRKFESTDPREALQYFYFLRDEKDSQGENMFLRCVSELVIESREFDMILGKLENDGSRKPGVIDKFTSDTKPIINKVASVAENKGLFEEAAKLYDLAKNADKVLELMNKLLSPVVPQISAPQSNKERLKNMALSIAERYRAQGISANKFVDSTFYLLLDLITFFDEYHSGHIDRAFDIIERLKLVPLNQESVEERVAAFRNFSDEIRHNLSEVLLATMNILFTQFKRLKGTSPSSSSRPQRVIEDRDSQLRSQARTLITFAGMIPYRTSGDTNARLVQMEVLMN
Turning to B2, the “percent of transfected cells showing colocalization” value with LacI-CFP-Nup133 is 21%; with LacI-CFP-Nup155, 2%.
